According to patent US20150010525A1, “Catalytic Tagging System to Study Macro-Molecular Interactions Using Engineered Ubiquitin Ligase and Ubiquitin-Like Proteins to Facilitate Substrate Identification” (THE REGENTS OF THE UNIVERSITY OF CALIFORNIA, priority 2012, published 2015):

Tests used:
[1] = biological target: T1, XIAP (Homo sapiens, UniProt P61081+P98170); assay: SILAC mass spectrometry screen for XIAP substrates with NEDDylator^XIAP in apoptotic Jurkat cell lysate; format: biochemical; conditions: Heavy lysate with Ubc12
T1 construct: The N-terminus (residues 1-434) of XIAP was then fused via a flexible Gly-Gly-Ser-Gly linker to the NEDD8 E2, Ubc12; GST (N, cleaved yes); made in house; host or cells: E. coli BL21 (DE3)
Procedure: Jurkat cells were grown in media containing either light or heavy isotopes of lysine and arginine and induced to undergo apoptosis with STS. Light cell extracts were incubated with the respective catalytic tagging system for each of the two IAPs and the heavy extracts labeled only with the wild-type NEDD8 E2, Ubc12. 64 mg regular L-Lys and 83.6 mg L-Arg.HCl were added to 1 liter RPMI-1640 minus L-Lys and L-Arg (Thermo/Pierce), 10% fetal bovine serum (FBS) to generate “Light” medium. 100 mg ^13C6^15N2 L-Lys.2HCl and 86 mg ^13C6 L-Arg.HCl (Cambridge Isotope) were added to the same amount of medium to generate the “Heavy” medium. Jurkat cells were cultured separately in “Light” or “Heavy” medium for 7 days to allow for thorough isotope incorporation. For IAP substrate identification, 400 million cells were treated with 2 μM STS for 4 hours, harvested, lysed in M-PER mammalian protein extraction buffer (Thermo/Pierce) in the presence of protease inhibitors (100× ProteoBlock cocktail, Fermentas) and mixed with cell lysate prepared from 400 million untreated cells. The NEDDylated proteins were isolated under denaturing conditions via the HB-NEDD8 tag using a tandem affinity pull down procedure (Tagwerker et al., Mol Cell Proteomics 5:737-748 (2006)) (FIG. 11). Purified NEDDylated proteins were trypsinized and analyzed with tandem mass spectrometry (LC-MS/MS).
For SILAC experiments, Jurkat cells were cultured separately in “Light” (supplemented with regular Lys and Arg) or “Heavy” (supplemented with ^13C6^15N2 Lys and ^13C6 Arg) medium for 7 days to allow for thorough isotope incorporation. Apoptotic “Light” and “Heavy” cell extracts were prepared individually. The lysates were cleared by spinning and then diluted in 50 mM HEPES pH 7.4, 150 mM NaCl to 5 mg/ml and supplemented with 5 mM ATP, 10 mM MgCl2. Endogenous NEDD8 E1 is cell lysate was used to catalyze the reaction. HB-NEDD8 was added to both lysate at mass ratio 1:500; the catalytic tagging system was added to the “Light” lysate at mass ratio 1:1000. Equal molar of Ubc12 was added to the “Heavy” lysate. […] NEDDylated proteins were separated by one-dimensional SDS-PAGE, and trypsinized for LC-MS/MS analysis.
For liquid chromatography—Tandem mass spectrometry (LC-MS/MS) analysis, the tryptic peptides were first desalted and concentrated with a C18 Ziptip (Millipore). LC-MS/MS was carried out by reverse phase LC interfaced with a LTQ-Orbitrap (ThermoFisher Scientific) hybrid mass spectrometer. A nanoflow HPLC (NanoAcquity UPLC system, Waters Corporation) was equipped with a trap column (180 μm×20 mm, 5 μm SymmetryC18, from Waters) and an analytical column (100 μm×100 mm, 1.7 μm BEH130C18, from Waters). […]

[2] = biological target: T2, cIAP1 (Homo sapiens, UniProt P61081+Q13490); assay: SILAC mass spectrometry screen for cIAP1 substrates with NEDDylator^cIAP1 in apoptotic Jurkat cell lysate; format: biochemical; conditions: Light lysate with NEDDylator^cIAP1, Heavy lysate with Ubc12
T2 construct: cIAP1(ΔR) (residues 1-555); GST (N, cleaved yes); made in house; host or cells: E. coli BL21 (DE3)
T2 sequence (Q13490+P61081 fused): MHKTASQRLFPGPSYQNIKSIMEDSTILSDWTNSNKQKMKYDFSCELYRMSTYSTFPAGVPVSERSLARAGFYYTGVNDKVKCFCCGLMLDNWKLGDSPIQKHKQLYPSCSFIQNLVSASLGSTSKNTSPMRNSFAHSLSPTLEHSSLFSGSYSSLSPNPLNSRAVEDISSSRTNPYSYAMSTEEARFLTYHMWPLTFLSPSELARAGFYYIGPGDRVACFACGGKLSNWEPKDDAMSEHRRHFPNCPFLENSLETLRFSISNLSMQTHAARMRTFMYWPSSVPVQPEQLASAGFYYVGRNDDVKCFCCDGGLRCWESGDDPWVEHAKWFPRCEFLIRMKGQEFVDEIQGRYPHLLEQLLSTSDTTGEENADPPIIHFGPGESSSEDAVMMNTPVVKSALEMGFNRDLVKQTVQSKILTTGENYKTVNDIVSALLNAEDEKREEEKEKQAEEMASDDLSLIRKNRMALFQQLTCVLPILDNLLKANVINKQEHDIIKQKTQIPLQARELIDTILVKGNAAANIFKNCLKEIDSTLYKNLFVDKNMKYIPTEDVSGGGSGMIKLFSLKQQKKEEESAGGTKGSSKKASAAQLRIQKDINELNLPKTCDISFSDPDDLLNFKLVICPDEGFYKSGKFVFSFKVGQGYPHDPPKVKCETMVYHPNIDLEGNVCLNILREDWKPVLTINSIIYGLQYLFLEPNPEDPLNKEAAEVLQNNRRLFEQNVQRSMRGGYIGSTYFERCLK

T1 sequence (P98170+P61081 fused): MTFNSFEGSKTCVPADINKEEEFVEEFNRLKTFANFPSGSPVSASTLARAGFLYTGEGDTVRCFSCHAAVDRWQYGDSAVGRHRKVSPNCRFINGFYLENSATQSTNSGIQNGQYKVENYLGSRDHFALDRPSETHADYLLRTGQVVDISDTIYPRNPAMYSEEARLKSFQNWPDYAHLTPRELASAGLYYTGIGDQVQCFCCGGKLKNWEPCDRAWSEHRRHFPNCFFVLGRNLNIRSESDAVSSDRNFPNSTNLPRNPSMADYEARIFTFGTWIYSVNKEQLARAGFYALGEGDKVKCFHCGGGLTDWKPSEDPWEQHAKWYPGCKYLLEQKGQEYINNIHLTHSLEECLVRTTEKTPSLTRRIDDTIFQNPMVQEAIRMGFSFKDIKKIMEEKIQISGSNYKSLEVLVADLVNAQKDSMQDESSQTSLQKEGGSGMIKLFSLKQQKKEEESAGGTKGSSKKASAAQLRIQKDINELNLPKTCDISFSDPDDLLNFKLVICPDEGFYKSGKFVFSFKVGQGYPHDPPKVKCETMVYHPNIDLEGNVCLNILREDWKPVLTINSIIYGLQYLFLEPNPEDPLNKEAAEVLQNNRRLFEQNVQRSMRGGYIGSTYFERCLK

L/H (Light/Heavy ratio) [1]: 5.88 | L/H (Light/Heavy ratio) [2]: 23.7
B1: Serine/threonine-protein phosphatase PGAM5, mitochondrial: phosphoglycerate mutase family member 5, dimeric protein phosphatase (protein, UniProt Q96HS1 1-289, looked up)
chain: MAFRQALQLAACGLAGGSAAVLFSAVAVGKPRAGGDAEPRPAEPPAWAGGARPGPGVWDPNWDRREPLSLINVRKRNVESGEEELASKLDHYKAKATRHIFLIRHSQYHVDGSLEKDRTLTPLGREQAELTGLRLASLGLKFNKIVHSSMTRAIETTDIISRHLPGVCKVSTDLLREGAPIEPDPPVSHWKPEAVQYYEDGARIEAAFRNYIHRADARQEEDSYEIFICHANVIRYIVCRALQFPPEGWLRLSLNNGSITHLVIRPNGRVALRTLGDTGFMPPDKITRS
modifications: full-length
notes: phosphoglycerate mutase family member 5, dimeric protein phosphatase
